Measurements: article PMC6098134

Target: recombinant basigin (CD147), immunoglobulin domains 1 and 2 of the short isoform (aa 22-205) (UniProt P35613)
Experiment: SPR; basigin immobilised on a CM5 chip by amine coupling (950 RU); RH5.1 injected as a two-fold dilution series from 2 µM, 120 s at 30 µL/min, 300 s dissociation; 20 °C; 10 mM HEPES pH 7.4, 150 mM NaCl, 3 mM EDTA, 0.005% Tween-20, 2 mg/mL dextran, 1 mg/mL salmon sperm DNA; kinetic sensorgrams fitted to a global 1:1 model

UniProt P35613, sequence (P35613 other isoform, or with tags, fused parts or gaps): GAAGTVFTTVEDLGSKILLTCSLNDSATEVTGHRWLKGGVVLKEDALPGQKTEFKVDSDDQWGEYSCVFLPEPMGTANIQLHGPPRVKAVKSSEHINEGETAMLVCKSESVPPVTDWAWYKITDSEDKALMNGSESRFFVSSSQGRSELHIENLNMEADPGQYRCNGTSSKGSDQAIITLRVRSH

Substance: RH5.1 protein vaccine (full-length Plasmodium falciparum reticulocyte-binding protein homolog 5, PfRH5, aa E26-Q526, with C-tag) (from UniProt Q8IFM5 26-526) (natural protein)
- Kd: 1200 nM
